Key:
[1] = biological target: asialofetuin (ASF) (UniProt P12763); assay: saturation binding of GFP fluorescence to ASF adsorbed onto plastic, [GFP]=0-10 µM
[2] = biological target: asialofetuin (ASF) (UniProt P12763); assay: cell-based or functional assay

UniProt P12763, sequence (P12763 19-359 limits assumed): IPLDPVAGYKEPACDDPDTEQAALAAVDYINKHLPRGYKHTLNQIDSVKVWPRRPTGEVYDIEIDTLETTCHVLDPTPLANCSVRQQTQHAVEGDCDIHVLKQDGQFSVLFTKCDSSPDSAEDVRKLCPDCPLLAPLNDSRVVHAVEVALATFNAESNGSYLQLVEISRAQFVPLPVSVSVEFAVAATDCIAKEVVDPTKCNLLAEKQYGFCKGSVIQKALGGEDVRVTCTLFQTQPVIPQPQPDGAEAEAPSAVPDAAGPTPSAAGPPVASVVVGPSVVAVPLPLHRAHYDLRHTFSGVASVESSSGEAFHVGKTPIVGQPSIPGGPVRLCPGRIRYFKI

Substance | concentration approaching saturation [1] | WT-G3 concentration at which insoluble aggregates with 7 uM ASF are detected at 420 nm [2] | absorbance of 10 uM WT-G3 plus 7 uM ASF in PBS [2]
GFP-TT-G3 (superfolder green fluorescent protein - TriggerTrimer coiled-coil - human galectin-3; trimeric nanoassembly) | 2 µM | – | –
wild-type galectin-3 (WT-G3) (from UniProt P17931 2-250) | – | > 2.5 µM | 0.4 absorbance

— patent US20220106580A1
